{"source": "patent US20030044400A1", "about": "“Composition and method for treating cells” (priority 2001, published 2003)", "key": {"[1]": {"test": "Determination of LD50 of Fetuin in Rats", "format": "in vivo, Sprague-Dawley albino rats", "method": "The Sprague-Dawley albino rats weighed 170-210 g and were divided into 4 groups, each group including 5 males and 5 females. The control group received 1 ml of saline intraperitoneally for 5 days. The other three groups were given 8.35 mg, 25 mg and 250 mg per kg body wt. of Fetuin 0.1 g/ml. All volumes were made up to 1 ml with sterile pyrogene free saline. The observation period was a least 14 days. If a visible toxic reaction occurs the observation period may be increased until visible signs of toxicity disappear. If any deaths occur during this period, the animal will be immediately autopsied to determine cause of death. During the observation period a careful clinical examination is made each day. These observations include skin and fur, eyes and mucous membranes, respiratory system, circulatory system, autonomic and central nervous system, somatomator activity and behavior patterns. Particular attention will be directed to observation of tremors, convulsions, salivation, diarrhea, lethargy, sleep or coma. Individual weights of the animals are determined shortly before the test substance is administered, and weekly thereafter. Any weight changes are recorded. At the end of the test, the surviving animals are weighed and sacrificed. Prior to sacrifice, blood is drawn from each animal to determine the serum levels of fetuin. After sacrifice, a gross necropsy is done on all animals. Any gross pathological changes are recorded and pertinent tissues preserved in 10% formalin for subsequent histopathology. The observations recorded are tabulated to see if there is any correlation between mortality and/or symptoms and the dose. The LD50 for each sex is determined at 14 days, using the method of Litchfield and Wilcoxon. A dose mortality curve and slope is determined if data justify it. A table of body weight gains or loses is constructed. Necropsy finding is reported."}, "[2]": {"test": "Hematological and Pathological Assessment of Fetuin in Balb/C Mice", "format": "in vivo", "method": "The Balb/C mice weighing 20-30 g at six to eight weeks of age were divided in six animals per group, 3 female and 3 male, in this study. Fetuin is administered IV or IP at dose of 5 mg, 0.5 mg, 0.05 mg and 0.005 mg per 20 gm mouse for 7 days. Because the nutritional supplement has potential beneficial effects on the immune response, potential toxicity is determined by clinical hematological and classical pathological parameters.\nPre-study assessment of highest tolerated dose administration by IV or IP injection. The end-point is the highest non-lethal dose administered by each route. Animals are screened daily for signs of lethality and the total time of observation is seven days.\nClinical and histological assessment of highest tolerated and lessor doses of Fetuin. Seven days prior to the beginning of phase II each animal is bled to determine its background values for hematological and clinical chemistry parameters. The highest tolerated dose and the next lowest, as well as the vehicle are injected in a single injection by the best-tolerated route. After 24 hours the animals are sacrificed. Gross and microscopic pathologic examination are performed on the organs. Hematological, clinical chemistries and clinical pathology tests are performed: (1) Blood Collection and Analysis: Blood samples are collected from each mouse, one at the start of the experiment prior to receiving their injection of Fetuin and the second collected at the time of euthanasia. The samples are collected via retro-orbital sinus bleed, or tail bleed, under anesthesia. (2) Hematology: Approximately 125 ul of whole blood is collected in an EDTA tube at the specified time. The following hematological parameters are determined: White blood cell count (WBC), Red blood cell count (RBC), Hemoglobin (HGB), Hematocrit (HCT), Mean Corpuscular Volume (MCV), Mean Corpuscular Hemoglobin (MCH), Mean Corpuscular Hemoglobin […] (MCHC), Platelet count (PLT), WBC differential count. Whole blood samples for hematology are disposed of one week after analysis. (3) Clinical Chemistry: Approximately 125 ul of whole blood is collected in a tube containing no additives for serum at the specified times. Tests determine the following clinical chemistry parameters: Alanine aminotransferase (ALT) and Aspartate aminotransferase (AST). (4) Collection of Tissue: The following tissues are collected into 10% neutral buffered formalin (NBF): kidney, liver, lung, thymus, reproductive organ, heart, spleen and lymph nodes. Any abnormalities or gross pathology found at necroscopy are recorded for each animal. (5) Histopathology: Histology is done on the tissue samples submitted for each animal. The tissues will be paraffin-embedded, sectioned and stained with hematoxylin and eosin (H&E). A pathology reads the slides for apparent abnormalities.\nClinical and histological assessment of highest tolerated dose of Fetuin administered daily over 14 days. The highest tolerated dose as determined in Phase II and the vehicle is injected daily for fourteen consecutive days by the best-tolerated route. After 24 hours, one-half of the animals are sacrificed. The remainder are sacrificed after 14 days. Gross microscopic pathologic examination are performed on the organs recovered from all animals. (1) Blood collection and analysis: Blood sample is collected from each mouse, one at the start of the experiment prior to receiving their injection of Fetuin and the second collected at the time of euthanasia. The samples are collected via retro-orbital sinus bleed or tail bleed under anesthesia. (2) Hematology: Approximately 125 ul of whole blood is collected in an EDTA tube at the specified time. The following hematology parameters is determined: White blood cell count (WBC), Red blood cell count (RBC), Hemoglobin (HGB), Hematocrit (HCT), Mean Corpuscular Volume (MCV), Mean Corpuscular Hemoglobin (MCH), Mean Corpuscular Hemoglobin […] (MCHC), Platelet count (PLC), WBC differential count. […]"}, "[3]": {"details": "rats, 5 female, 8.35 mg/kg Fetuin"}, "[4]": {"details": "rats, 5 female, 8.35 mg/kg Fetuin ip"}, "[5]": {"details": "rats, 5 female, 25 mg/kg Fetuin"}, "[6]": {"details": "rats, 5 female, 25 mg/kg Fetuin ip"}, "[7]": {"details": "rats, 5 female, 250 mg/kg Fetuin"}, "[8]": {"details": "rats, 5 female, 250 mg/kg Fetuin ip"}, "[9]": {"details": "rats, 5 male, 8.35 mg/kg Fetuin"}, "[10]": {"details": "rats, 5 male, 8.35 mg/kg Fetuin ip"}, "[11]": {"details": "rats, 5 male, 25 mg/kg Fetuin ip"}, "[12]": {"details": "rats, 5 male, 250 mg/kg Fetuin ip"}}, "data": [{"substance": "Fetuin: Fetal bovine fetuin purified from fetal bovine serum by modified Spiro method; 60 Kd glycoprotein, homologue of alpha 2-HS glycoprotein", "values": [{"measurement": "necropsy", "setting": "[1]; all of the rats, 8.35, 25 and 250 mg per kg", "result": "appeared to be normal"}, {"measurement": "Spleen Wt. (gm)", "setting": "[1]; [3]", "result": 0.513, "unit": "gm"}, {"measurement": "Thymus Wt. (gm)", "setting": "[1]; [3]", "result": 0.481, "unit": "gm"}, {"measurement": "Final Wt. (gm)", "setting": "[1]; [4]", "result": 203.5, "unit": "gm"}, {"measurement": "Initial Wt. (gm)", "setting": "[1]; [4]", "result": 170.2, "unit": "gm"}, {"measurement": "Wt. Gain Total (gm)", "setting": "[1]; [4]", "result": 33.3, "unit": "gm"}, {"measurement": "Spleen Wt. (gm)", "setting": "[1]; [5]", "result": 0.714, "unit": "gm"}, {"measurement": "Thymus Wt. (gm)", "setting": "[1]; [5]", "result": 0.485, "unit": "gm"}, {"measurement": "Final Wt. (gm)", "setting": "[1]; [6]", "result": 218.3, "unit": "gm"}, {"measurement": "Initial Wt. (gm)", "setting": "[1]; [6]", "result": 190.3, "unit": "gm"}, {"measurement": "Wt. Gain Total (gm)", "setting": "[1]; [6]", "result": 28.0, "unit": "gm"}, {"measurement": "Spleen Wt. (gm)", "setting": "[1]; [7]", "result": 0.578, "unit": "gm"}, {"measurement": "Thymus Wt. (gm)", "setting": "[1]; [7]", "result": 0.619, "unit": "gm"}, {"measurement": "Final Wt. (gm)", "setting": "[1]; [8]", "result": 201.7, "unit": "gm"}, {"measurement": "Initial Wt. (gm)", "setting": "[1]; [8]", "result": 164.2, "unit": "gm"}, {"measurement": "Wt. Gain Total (gm)", "setting": "[1]; [8]", "result": 37.5, "unit": "gm"}, {"measurement": "Spleen Wt. (gm)", "setting": "[1]; [9]", "result": 0.745, "unit": "gm"}, {"measurement": "Thymus Wt. (gm)", "setting": "[1]; [9]", "result": 0.599, "unit": "gm"}, {"measurement": "Final Wt. (gm)", "setting": "[1]; [10]", "result": 283.7, "unit": "gm"}, {"measurement": "Initial Wt. (gm)", "setting": "[1]; [10]", "result": 233.5, "unit": "gm"}, {"measurement": "Wt. Gain Total (gm)", "setting": "[1]; [10]", "result": 50.2, "unit": "gm"}, {"measurement": "Spleen Wt. (gm)", "setting": "[1]; rats, 5 male, 25 mg/kg Fetuin", "result": 0.796, "unit": "gm"}, {"measurement": "Thymus Wt. (gm)", "setting": "[1]; rats, 5 male, 25 mg/kg Fetuin", "result": 0.525, "unit": "gm"}, {"measurement": "Final Wt. (gm)", "setting": "[1]; [11]", "result": 227.5, "unit": "gm"}, {"measurement": "Initial Wt. (gm)", "setting": "[1]; [11]", "result": 174.5, "unit": "gm"}, {"measurement": "Wt. Gain Total (gm)", "setting": "[1]; [11]", "result": 53.0, "unit": "gm"}, {"measurement": "Spleen Wt. (gm)", "setting": "[1]; rats, 5 male, 250 mg/kg Fetuin", "result": 0.777, "unit": "gm"}, {"measurement": "Thymus Wt. (gm)", "setting": "[1]; rats, 5 male, 250 mg/kg Fetuin", "result": 0.595, "unit": "gm"}, {"measurement": "Final Wt. (gm)", "setting": "[1]; [12]", "result": 253.3, "unit": "gm"}, {"measurement": "Initial Wt. (gm)", "setting": "[1]; [12]", "result": 186.5, "unit": "gm"}, {"measurement": "Wt. Gain Total (gm)", "setting": "[1]; [12]", "result": 66.8, "unit": "gm"}, {"measurement": "mortality", "setting": "[1]; rats, 8.35, 25 and 250 mg per kg ip, observation at least 14 days", "result": "no mortality"}, {"measurement": "Blood glucose levels", "setting": "[2]; Balb/C mice, 0.005 mg per animal", "result": 13, "unit": "mg/dL"}, {"measurement": "Blood glucose levels", "setting": "[2]; Balb/C mice, 0.05 mg Fetuin", "result": 27, "unit": "mg/dL"}, {"measurement": "Blood glucose levels", "setting": "[2]; Balb/C mice, 0.5 mg Fetuin", "result": 25, "unit": "mg/dL"}, {"measurement": "Blood glucose levels", "setting": "[2]; Balb/C mice, 5 mg Fetuin per animal", "result": 41.6, "unit": "mg/dL"}, {"measurement": "cholesterol levels elevated compared to the lower doses", "setting": "[2]; Balb/C mice, 5 mg per mouse, P<0.05", "result": 14, "unit": "%"}, {"measurement": "survival and clinical signs", "setting": "[2]; Balb/C mice, 5, 0.5, 0.05 and 0.005 mg Fetuin via IP route, 7 days", "result": "survived for 7 days without any signs of distress"}, {"measurement": "White Blood Cell (WBC) levels", "setting": "[2]; Balb/C mice, 24 hrs after injection of various doses, p=0.126", "result": "within the normal limits"}, {"measurement": "AST (Aspartate Aminotransferase) level", "setting": "[2]; Balb/C mice, P=0.306", "result": "within the normal limits"}, {"measurement": "ALT (Alanine Aminotransferase) level", "setting": "[2]; Balb/C mice, P=0.444", "result": "within the normal limits"}, {"measurement": "microscopic structure of tissues", "setting": "[2]; Balb/C mice, all dosage groups", "result": "normal in architecture"}, {"measurement": "body weight change", "setting": "[2]; Balb/C mice, control vs Fetuin treated group", "result": "no significant body weight change"}, {"measurement": "Blood Urinary Nitrogen (BUN) levels", "setting": "[2]; Balb/C mice, highest and lowest dose groups, unrelated to dose", "result": "elevated"}, {"measurement": "overall toxicity", "setting": "[2]; Balb/c mouse", "result": "very low toxicity"}, {"measurement": "red blood cell count, white blood cell count and platelet count", "setting": "[2]; healthy animals, 5-fold increased dose", "result": "did not affect"}, {"measurement": "safety by hematological, clinical chemistry and histopathological analysis", "setting": "[2]; healthy mice, 2.5-5 fold higher dose than effective in cancer-bearing mice", "result": "no obvious adverse effect was observed"}]}]}
